The supplement of paper PMC10724198
± gives the standard deviation of the averaged measurements.

Test system: Saccharomyces cerevisiae
Assay: protein stability index of tFT-peptide fusion (C-terminal peptide) (PSI (0-1 scale)); higher = more stable (slower turnover)
Settings: temperature: 30 C
Procedure: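 MPS profiling in S. cerevisiae of the yeast C-terminome library: the last 12 aa of each annotated ORF are fused to the C-terminus of a sfGFP-mCherry timer, after a GGGS linker. Cells are FACS-sorted into 8 mCherry/sfGFP bins and deep-sequenced. PSI runs from 0 (unstable) to 1 (stable); wild type and das1Δ backgrounds, two technical replicates each.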

[1] = genetic background: das1 deletion

Row | Sequence | protein stability index [1] | protein stability index (genetic background: wild type)
1 | AYTEVKAVRIKL [ALD6 C-terminal 12 aa] | 0.6745 ± 0.0043 | 0.69 ± 0.02
2 | CGVSWKSGVVKL [PXP2 C-terminal 12 aa] | 0.7093 ± 0.0022 | 0.716 ± 0.031
3 | CLFGMAWLSTIL [YIP4 C-terminal 12 aa] | 0.661 ± 0.015 | 0.623 ± 0.0079
4 | CLILSCSWWILN [YJR020W C-terminal 12 aa] | 0.292 ± 0.0085 | 0.1518 ± 0.00025
5 | CLSDIAKVLRNQ [PBP4 C-terminal 12 aa] | 0.661 ± 0.0092 | 0.577 ± 0.015
6 | CPLCRSEIPFRR [RKR1 C-terminal 12 aa] | 0.75 ± 0.028 | 0.724 ± 0.039
7 | CRESNLKLIVSG [ARR2 C-terminal 12 aa] | 0.6753 ± 0.002 | 0.712 ± 0.016
8 | CSGMKPISELQQ [RSM28 C-terminal 12 aa] | 0.695 ± 0.015 | 0.682 ± 0.017
9 | CSPVLFSLLNIA [LCB3 C-terminal 12 aa] | 0.699 ± 0.012 | 0.674 ± 0.087
10 | DAKFMMQASCSS [FMP40 C-terminal 12 aa] | 0.6897 ± 0.0051 | 0.682 ± 0.035
11 | DASVEQNILAVL [RQT4 C-terminal 12 aa] | 0.70427 ± 0.00032 | 0.6904 ± 0.0037
12 | DAVAEEVKKILA [LEU2 C-terminal 12 aa] | 0.689 ± 0.018 | 0.68 ± 0.0084
13 | DCLEGMLELEKL [DSS1 C-terminal 12 aa] | 0.698 ± 0.025 | 0.677 ± 0.041
14 | DDDNEDVEMSDA [NOC2 C-terminal 12 aa] | 0.66818 ± 0.00066 | 0.693 ± 0.057
15 | DDEDEEDDDFKE [CHZ1 C-terminal 12 aa] | 0.725 ± 0.021 | 0.671 ± 0.017
16 | DDYAQYLDQDSD [MAK21 C-terminal 12 aa] | 0.7147 ± 0.004 | 0.671 ± 0.011
17 | DEDEDDSTTKEP [GLC8 C-terminal 12 aa] | 0.679 ± 0.011 | 0.7 ± 0.026
18 | DEDLWEEQEVCP [YGR017W C-terminal 12 aa] | 0.702 ± 0.0037 | 0.709 ± 0.011
19 | DELSLRPATERI [YGR038C-E C-terminal 12 aa] | 0.739 ± 0.23 | 0.571
20 | DFNDSSNLKKTR [CLN3 C-terminal 12 aa] | 0.7398 ± 0.0057 | 0.693 ± 0.039
21 | DGEFVVSDLRLR [YOR283W C-terminal 12 aa] | 0.708 ± 0.0071 | 0.682 ± 0.015

Row | Sequence | protein stability index [1] | protein stability index (genetic background: wild type)
22 | DGGVKRIRVWGY [DAL2 C-terminal 12 aa] | 0.706 ± 0.024 | 0.703 ± 0.054
23 | DGVENTPVESQQ [NMD3 C-terminal 12 aa] | 0.6821 ± 0.0024 | 0.707 ± 0.0061
24 | DIFSRFSIILKC [YPR136C C-terminal 12 aa] | 0.413 ± 0.017 | 0.281 ± 0.012
25 | DIRAHLAEYYSF [PAU7 C-terminal 12 aa] | 0.728 ± 0.026 | 0.687 ± 0.011
26 | DKLGFLDRRRNE [COI1 C-terminal 12 aa] | 0.683 ± 0.036 | 0.668 ± 0.043
27 | DKRNLLEILDFS [RRT13 C-terminal 12 aa] | 0.72 ± 0.021 | 0.695 ± 0.029
28 | DKSCIDIRSIIH [YAP5 C-terminal 12 aa] | 0.706 ± 0.011 | 0.726 ± 0.041
29 | DLEDEIEMEDVV [TFG2 C-terminal 12 aa] | 0.699 ± 0.027 | 0.711 ± 0.046
30 | DLLNKESEYLNI [FAR11 C-terminal 12 aa] | 0.705 ± 0.012 | 0.755 ± 0.061
31 | DLRCLKYKYKNA [YGR016W C-terminal 12 aa] | 0.695 ± 0.011 | 0.348 ± 0.028
32 | DLVAQQVVQDGH [MYO2 C-terminal 12 aa] | 0.7005 ± 0.0019 | 0.707 ± 0.019
33 | DMMMLFGAEGDE [TAF7 C-terminal 12 aa] | 0.72102 ± 0.00011 | 0.707 ± 0.027
34 | DNFINSVKLNFR [SEC10 C-terminal 12 aa] | 0.6945 ± 0.0052 | 0.734 ± 0.022
35 | DPFDTNLSIKLS [YMR075C-A C-terminal 12 aa] | 0.696 ± 0.026 | 0.6827 ± 0.0066
36 | DQTRDFGTSMEL [FOB1 C-terminal 12 aa] | 0.706 ± 0.0098 | 0.712 ± 0.0086
37 | DTVLRKFADYKI [MPS1 C-terminal 12 aa] | 0.7043 ± 0.0052 | 0.679 ± 0.032
38 | DVKLLPPPKKRN [NUC1 C-terminal 12 aa] | 0.67982 ± 0.00038 | 0.6883 ± 0.0014
39 | EAASDEHFSRVV [YGL185C C-terminal 12 aa] | 0.709 ± 0.02 | 0.733 ± 0.021
40 | ECPRFSNKHGRN [YDR169C-A C-terminal 12 aa] | 0.701 ± 0.0084 | 0.681 ± 0.014
41 | EDDEDGSGVEYD [RTT106 C-terminal 12 aa] | 0.694 ± 0.009 | 0.7 ± 0.062
42 | EDKDSESFSEVC [YCG1 C-terminal 12 aa] | 0.702 ± 0.016 | 0.705 ± 0.011

Row | Sequence | protein stability index [1] | protein stability index (genetic background: wild type)
43 | EDNDYELIFMNV [PML1 C-terminal 12 aa] | 0.7194 ± 0.0068 | 0.712 ± 0.019
44 | EDVDEDTTPFNV [YTP1 C-terminal 12 aa] | 0.7138 ± 0.0053 | 0.684 ± 0.013
45 | EDVEVPFITIHL [UBA1 C-terminal 12 aa] | 0.6884 ± 0.0057 | 0.683 ± 0.017
46 | EDVKEEESKVGA [IOC4 C-terminal 12 aa] | 0.691 ± 0.033 | 0.664 ± 0.0082
47 | EDYAYWGNRQLY [PER1 C-terminal 12 aa] | 0.7133 ± 0.0036 | 0.743 ± 0.038
48 | EEDEEDEENEEQ [UBX2 C-terminal 12 aa] | 0.716 ± 0.016 | 0.693 ± 0.043
49 | EEGPFKADHYRY [SAH1 C-terminal 12 aa] | 0.701 ± 0.011 | 0.694 ± 0.033
50 | EEQINGKRKRKD [YJR107C-A C-terminal 12 aa] | 0.672 ± 0.0096 | 0.674 ± 0.022
51 | EFIFRESRKHNV [ERP3 C-terminal 12 aa] | 0.728 ± 0.058 | 0.71 ± 0.061
52 | EFSTLFDDYKDN [YRR1 C-terminal 12 aa] | 0.7429 ± 0.0055 | 0.767 ± 0.022
53 | EGEISKGAENAT [YDR444W C-terminal 12 aa] | 0.676 ± 0.015 | 0.689 ± 0.011
54 | EHKLGNTKYFED [ARP5 C-terminal 12 aa] | 0.693 ± 0.01 | 0.687 ± 0.023
55 | EILGTDEPTVRT [PGM1 C-terminal 12 aa] | 0.693 ± 0.015 | 0.7 ± 0.014
56 | EISNRDENSIPE [MUB1 C-terminal 12 aa] | 0.7214 ± 0.004 | 0.677 ± 0.026
57 | EKAERRKLSQGR [QRI5 C-terminal 12 aa] | 0.686 ± 0.02 | 0.6807 ± 0.002
58 | EKANDIGFHKYR [RPS29B C-terminal 12 aa] | 0.6797 ± 0.0058 | 0.648 ± 0.027
59 | EKIKKILSELKK [NKP1 C-terminal 12 aa] | 0.705 ± 0.022 | 0.715 ± 0.021
60 | EKKSKKEKKEKK [NOP58 C-terminal 12 aa] | 0.747 ± 0.07 | 0.717 ± 0.04
61 | EKLILAKKDQPN [IST3 C-terminal 12 aa] | 0.6926 ± 0.0055 | 0.709 ± 0.046
62 | EKMLAAPHQNKV [SPR28 C-terminal 12 aa] | 0.696 ± 0.015 | 0.6924 ± 0.001
63 | EKPKKKEVEKTA [NOG2 C-terminal 12 aa] | 0.684 ± 0.012 | 0.688 ± 0.018

Row | Sequence | protein stability index [1] | protein stability index (genetic background: wild type)
64 | EKWASQFGSSGS [SAP1 C-terminal 12 aa] | 0.702 ± 0.024 | 0.685 ± 0.014
65 | ELASYILKELNL [KIN2 C-terminal 12 aa] | 0.731 ± 0.028 | 0.702 ± 0.064
66 | ELKKIILESSMK [EXO5 C-terminal 12 aa] | 0.698 ± 0.059 | 0.68 ± 0.011
67 | ELLYIIDHLSEL [BTS1 C-terminal 12 aa] | 0.693 ± 0.023 | 0.67 ± 0.015
68 | EMKHSLFRNPFH [PIG2 C-terminal 12 aa] | 0.705 ± 0.014 | 0.678 ± 0.015
69 | EPLKESIFNQLK [MRPL23 C-terminal 12 aa] | 0.694 ± 0.013 | 0.678 ± 0.059
70 | EQGGEGVQCASQ [YDJ1 C-terminal 12 aa] | 0.686 ± 0.014 | 0.69 ± 0.045
71 | ERDNWWVVAQKR [TRM9 C-terminal 12 aa] | 0.744 ± 0.023 | 0.723 ± 0.012
72 | ERINFVCETYGL [AIM14 C-terminal 12 aa] | 0.7 ± 0.018 | 0.7 ± 0.027
73 | ERNPSQRPQRRY [RPS10B C-terminal 12 aa] | 0.686 ± 0.0083 | 0.679 ± 0.066
74 | ERPQDWFEDIGE [FCY1 C-terminal 12 aa] | 0.7168 ± 0.0043 | 0.686 ± 0.017
75 | ESFEKQGKIIYN [MOB2 C-terminal 12 aa] | 0.681 ± 0.0097 | 0.685 ± 0.042
76 | ESSKDVKRNNKD [SDH7 C-terminal 12 aa] | 0.691 ± 0.012 | 0.702 ± 0.03
77 | ETARNLAEYNGE [SEC72 C-terminal 12 aa] | 0.701 ± 0.013 | 0.728 ± 0.0056
78 | ETGHISKDCPKA [GIS2 C-terminal 12 aa] | 0.698 ± 0.018 | 0.695 ± 0.013
79 | ETNFWTAAMEYE [THI22 C-terminal 12 aa] | 0.717 ± 0.011 | 0.701 ± 0.014
80 | EVPVNTADRGRL [PMU1 C-terminal 12 aa] | 0.701 ± 0.021 | 0.76 ± 0.071
81 | EWSSGIPHPEMI [ARA2 C-terminal 12 aa] | 0.7305 ± 0.0044 | 0.667 ± 0.018
82 | EYEPFVMYIINL [VMA5 C-terminal 12 aa] | 0.6058 ± 0.001 | 0.545 ± 0.0069
